In the MegaScale stability set (Tsuboyama et al. 2023):

B1: 2K2A (parent)
chain: ELREAFRLYDKEGNGYISTDVMREILAELDETLSSEDLDAMIDEIDADGSGTVDFEEFMGVMT

Variants of: B1
Experiment: folding stability dG (cDNA display proteolysis); higher = more stable
Settings: PBS, room temperature

Folding stability dG [kcal/mol], by site and new letter:
E12: C 1.61; F 1.45; D 1.85; A 1.57
A5: D 1.18; Q 2.3; S 1.39; K 2.72; G 1; E 1.21; R 2.66; L 3; C 3.22; W 2.97; F 2.74; M 2.91; H 1.76; N 1.13; I 2.78; T 2.14; V 2.6; P 0.29; Y 2.59
D10: L 1.26; A 0.874; F 1.66; I 1.21; Y 1.15; R -0.527; E 0.386; W 1.4; M 1.39; Q 0.395; T 0.563; H -0.087; C 2.18; G 0.123; V 0.886; S 0.55; N -0.227
K11: E 1.36; Y 1.63; D 0.997; M 1.77; Q 1.72; V 2.1; S 1.74; T 1.94; H 1.69; F 1.82; L 2.13; C 2.07; R 1.71; P 1.81; W 1.88; N 1.4; A 1.74; I 2.01; G 1.03
R7: I 1.93; A 2.09; Q 1.96; V 1.62; L 1.93; F 1.61; W 1.76; D 1.81; M 2.12; P 0.375; S 1.97; C 2.22; K 2.12; H 1.72; N 2.06; E 1.8; T 1.75; Y 1.67; G 1.64
F6: G -0.227; E 0.086; P 0.281; W 2.18; N 0.361; A 0.316; L 0.489; C 1.79; S 0.268; R 0.468; I 0.623; T 0.266; D 0.525; Y 0.586; V 0.529; K 0.192; Q 0.462; H 0.31; M 0.623
R3: V 1.77; T 1.44; L 2.2; N 1.34; Q 1.71; G 1.48; K 1.86; Y 2.48; S 1.42; P 0.63; M 1.93; I 1.99; H 1.71; W 2.29
L8: M 2.05; N 1.85; H 2.01; Q 2.05; Y 1.98; E 1.52; R 2.38; T 1.94; F 2.1; W 1.83; D 0.997; S 1.92; V 2.07; G 1.73; I 1.8; K 2.44; P 0.853; A 2.18
E4: T 1.23; I 1.43; Y 1.43; R 1.6; W 1.41; N 1.4; C 2.85; F 1.32; Q 1.46; G 0.935; S 1.24; H 1.36; V 1.39; A 1.77; P 0.889; D 2; L 1.53; M 1.39; K 1.64
Y9: S 0.532; F 1.59; R 1.32; H 1.59; T 0.17; L 2.07; W 2; E 0.654; G 0.24; D 0.261; V 0.891; I 1.31; K 0.775; N 0.71; P 0.057; M 1.43; Q 0.85; C 1.94; A 1.56
